The target in the experiment is Y2R_cysteine_deficient_eYFP (in HEK293 cells) (human, UniProt P49146 1-381, C58^1.40A | C103^2.57S | C151^3.53S | C272^6.39A | C316^7.44A | C342^7.70A).

Experimental findings from article PMC6405639 (2019) are described below.

Sequence of Y2R_cysteine_deficient_eYFP (in HEK293 cells) (P49146 other isoform, or with tags, fused parts or gaps with the stated changes): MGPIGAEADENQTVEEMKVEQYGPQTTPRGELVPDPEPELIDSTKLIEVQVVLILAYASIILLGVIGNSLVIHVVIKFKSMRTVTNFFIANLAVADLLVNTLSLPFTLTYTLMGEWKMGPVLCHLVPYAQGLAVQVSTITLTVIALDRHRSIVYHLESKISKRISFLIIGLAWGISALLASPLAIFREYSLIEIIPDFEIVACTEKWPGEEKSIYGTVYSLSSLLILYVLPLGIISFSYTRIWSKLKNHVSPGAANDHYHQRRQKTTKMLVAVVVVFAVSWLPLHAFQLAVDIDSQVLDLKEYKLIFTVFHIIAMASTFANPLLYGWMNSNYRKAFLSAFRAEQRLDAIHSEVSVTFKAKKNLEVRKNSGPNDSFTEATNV

B1: Porcine neuropeptide Y (peptide)
peptide: not shown
modifications: C-terminal amide
In the case of B1, the IC50 worked out at 8.2 nM.
